Experimental data as given in US20200377573.

These substances were tested on HTRA1-inhibiting peptides (Example 3-2 and 3-3, members not named).

Chain of Human plasma kallikrein (chain, as listed by the source): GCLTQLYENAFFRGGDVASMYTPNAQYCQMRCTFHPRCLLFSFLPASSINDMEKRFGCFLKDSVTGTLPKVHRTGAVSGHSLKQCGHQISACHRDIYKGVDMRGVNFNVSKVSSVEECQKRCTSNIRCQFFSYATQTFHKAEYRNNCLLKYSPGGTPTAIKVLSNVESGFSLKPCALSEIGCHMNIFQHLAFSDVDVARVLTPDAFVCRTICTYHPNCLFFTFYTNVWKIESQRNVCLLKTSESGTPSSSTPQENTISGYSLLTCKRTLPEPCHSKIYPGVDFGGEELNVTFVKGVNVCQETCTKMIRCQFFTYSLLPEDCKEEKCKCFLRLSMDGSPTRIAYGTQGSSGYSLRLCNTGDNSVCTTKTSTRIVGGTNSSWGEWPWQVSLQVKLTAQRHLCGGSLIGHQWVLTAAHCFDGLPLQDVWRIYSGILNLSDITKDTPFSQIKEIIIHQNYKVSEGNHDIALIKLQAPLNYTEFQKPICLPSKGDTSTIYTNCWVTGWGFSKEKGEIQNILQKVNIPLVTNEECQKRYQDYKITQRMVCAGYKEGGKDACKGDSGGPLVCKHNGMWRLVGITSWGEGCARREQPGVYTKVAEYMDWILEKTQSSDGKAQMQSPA

Substance | protease activity (decomposition of a peptide substrate)
Bovine α-chymotrypsin | did not suppress the protease activity of any of the proteases at a final inhibitor concentration of 1 micro M
Human plasma kallikrein | did not suppress the protease activity of any of the proteases at a final inhibitor concentration of 1 micro M
Human protein C | did not suppress the protease activity of any of the proteases at a final inhibitor concentration of 1 micro M
Human thrombin | did not suppress the protease activity of any of the proteases at a final inhibitor concentration of 1 micro M
Human tryptase | did not suppress the protease activity of any of the proteases at a final inhibitor concentration of 1 micro M
Human uPA | did not suppress the protease activity of any of the proteases at a final inhibitor concentration of 1 micro M
